25 substances from PMC9956121 can be followed below.

The target of assay [1] is hTAPBPR^FLQ (S104F, K211L, R270Q), luminal domain, C94S (human). Description: SPR; biotinylated hTAPBPR mutants immobilised on a streptavidin chip; Ac-6-FP-loaded MR1 C262S flowed over at 0-100 µM; 25°C; 150 mM NaCl, 20 mM sodium phosphate pH 7.4, 0.1% Tween 20; one site-specific binding fit.
The target of assay [2] is hTAPBPR^KRQ (R105K, K211R, R270Q), luminal domain, C94S (human). The description is as above.
Assay [3] deals with hTAPBPR^RQ (K211R, R270Q), luminal domain, C94S (human). The description is as above.
Assay [4] addresses chicken TAPBPR, luminal domain (chicken (G. gallus)). Description: SPR; biotinylated TAPBPR on a streptavidin chip; MR1 C262S injected at 0-100 μM; 25°C; 150 mM NaCl, 20 mM sodium phosphate pH 7.4, 0.1% Tween 20.
The target of assay [5] is human TAPBPR (TAP binding protein, related), luminal domain (human). The assay is described as above.
In assay [6] the target is peptide-deficient (empty) HLA-A*11:01/hβ2m (human).
Assay [7] deals with peptide-deficient (empty) HLA-A*24:02/hβ2m (human).
Assay [8] addresses peptide-deficient (empty) HLA-A*01:01/hβ2m (human).
The target in assay [9] is HLA-A*02:06/hβ2m loaded with a placeholder peptide (human).
In assay [10] the target is peptide-loaded HLA-A*02:01/hβ2m (photolabile peptide KILGFVFJV) (human).
Assay [11] has as its target HLA-A*02:71/hβ2m loaded with a placeholder peptide (human).
The target in assay [12] is HLA-A*02:77/hβ2m loaded with a placeholder peptide (human).
In assay [13] the target is peptide-deficient (empty) HLA-A*02:01/hβ2m (human).
Assay [14] shares this target. This is another data set of the same source.
The target of assay [15] is peptide-deficient (empty) HLA-B*37:01/hβ2m (human).
Assay [16] has as its target chicken TAPBPR, luminal domain (chicken (G. gallus)). Description: SPR; biotinylated TAPBPR (about 1000 RU) on a streptavidin chip; HLA UV-irradiated 20 min at 365 nm just before injection at 0-20 μM; 25°C; 150 mM NaCl, 20 mM sodium phosphate pH 7.4, 0.1% Tween 20.
In assay [17] the target is hTAPBPR^FLQ (S104F, K211L, and R270Q), soluble ectodomain (human). The description is as above.
In assay [18] the target is hTAPBPR^RQ (K211R and R270Q), soluble ectodomain (human). Described as above.
Assay [19] deals with human TAPBPR (TAP binding protein, related), luminal domain (human). The assay is described as above.
For assay [20] the target is unchanged. Briefly: SPR; biotinylated TAPBPR (about 1000 RU) on a streptavidin chip; peptide-loaded HLA, not UV-irradiated, injected at 0-20 μM; 25°C; 150 mM NaCl, 20 mM sodium phosphate pH 7.4, 0.1% Tween 20. Background: Surface plasmon resonance follows binding to a sensor surface in real time, without labels.
Assay [21] addresses hTAPBPR^FLQ (S104F, K211L, R270Q), luminal domain, C94S (human). Description: SPR; biotinylated TAPBPR (about 1000 RU) immobilised on a streptavidin chip; peptide-loaded HLA (photolabile peptide, no UV) flowed over at 0-20 µM; 25°C; 150 mM NaCl, 20 mM sodium phosphate pH 7.4, 0.1% Tween 20; 30 µl/min, 60 s injection, 180 s dissociation; kinetic fit or one site-specific binding ….

Assay [22] concerns the target hTAPBPR^KRQ (R105K, K211R, R270Q), luminal domain, C94S (human). Described as above.
In assay [23] the target is hTAPBPR^RQ (K211R, R270Q), luminal domain, C94S (human). The description is as above.
The target in assay [24] is chicken TAPBPR, luminal domain (chicken (G. gallus)). Description: SPR; biotinylated TAPBPR (about 1000 RU) on a streptavidin chip; peptide-loaded HLA, not UV-irradiated, injected at 0-20 μM; 25°C; 150 mM NaCl, 20 mM sodium phosphate pH 7.4, 0.1% Tween 20.
Assay [25] shares this target. Description: ITC; 150 μM pHLA-B*08:01 in the syringe titrated into 5 μM chTAPBPR in the cell, both with 0.45 mM FLRGRAJGL; 150 mM NaCl, 20 mM sodium phosphate pH 7.2; one-site model; apparent KD. (In general: In ITC the heat of successive injections is recorded.)

In the case of “MR1 C262S loaded with acetyl-6-formylpterin (Ac-6-FP) (complex)”, the Kd in assay [1] was found to be 48 µM; in assay [2], 62 µM; in [3], 49.5 µM.

With “acetyl-6-formylpterin-loaded MR1 C262S/hβ2m (from UniProt P61769 21-119) (complex)”, the Kd amounted to 19.2 µM in assay [4] and 98.7 µM in [5].

For “chicken TAPBPR, luminal domain (domain or fragment)”, the overall exchange rate (FP), against hTAPBPR was greater than 17 fold in assay [6] and greater than 7 fold in assay [7]. In assay [8], the kapp of fluorescent peptide binding to HLA-A*01:01 with 5 μM TAPBPR (FP) came to 0.00017 s⁻¹.

“hTAPBPR^FLQ (S104F, K211L, and R270Q), soluble ectodomain (domain or fragment)” returned a k2overall of peptide exchange (FP), against hTAPBPR in [9] of 14 fold. Further, the k2overall of exchange of KILGFVFβFV-loaded HLA-A*02:01 with TAMRA-[…] (FP), against hTAPBPR in assay [10] came to 90 fold. In assay [8], this substance returned a kapp of fluorescent peptide binding to HLA-A*01:01 with 5 μM TAPBPR (FP) of 7e-05 s⁻¹.

As for “hTAPBPR^KRQ (R105K, K211R, and R270Q), soluble ectodomain (domain or fragment)”, in assay [9], the k2overall of peptide exchange (FP), against hTAPBPR came out at 9 fold. Moreover, in assay [10], the k2overall of exchange of KILGFVFβFV-loaded HLA-A*02:01 with TAMRA-[…] (FP), against hTAPBPR came out at 60 fold. The same substance yielded a kapp of fluorescent peptide binding to HLA-A*01:01 with 5 μM TAPBPR (FP) in assay [8] of 0.00013 s⁻¹.

In assay [9], “hTAPBPR^RQ (K211R and R270Q), soluble ectodomain (domain or fragment)” returned a k2overall of peptide exchange (FP), against hTAPBPR of 9 fold. In assay [10], the k2overall of exchange of KILGFVFβFV-loaded HLA-A*02:01 with TAMRA-[…] (FP), against hTAPBPR was 60 fold. In assay [8], this substance displayed a kapp of fluorescent peptide binding to HLA-A*01:01 with 5 μM TAPBPR (FP) of 0.00014 s⁻¹.

“human TAPBPR (TAP binding protein, related), luminal domain (domain or fragment)”: the values for the k2overall of peptide exchange (FP) in [11], in assay [12] and in [13] were 335 M⁻¹ s⁻¹, 17200 M⁻¹ s⁻¹ and 1160 M⁻¹ s⁻¹, respectively. Further, the k2overall of peptide exchange (FP), against chTAPBPR in [14] was 8 fold; in assay [15] it was 5 fold lower.

In the case of “peptide-deficient (empty) HLA-A*01:01/hβ2m (from UniProt P61769 21-119) (complex)”, the Kd in assay [16] amounted to 1.46 µM.

Consider “peptide-deficient (empty) HLA-A*02:01/hβ2m (from UniProt P61769 21-119) (complex)”, for which the Kd in [16] was determined as 2.96 µM; in [17] it was 0.081 µM; in [18], 0.188 µM; in [19], 0.17 µM.

For the substance “peptide-deficient (empty) HLA-A*11:01/hβ2m (from UniProt P61769 21-119) (complex)”, the Kd in [16] came to 0.91 µM; in assay [19], 2.04 µM.

Take “peptide-deficient (empty) HLA-A*24:02/hβ2m (from UniProt P61769 21-119) (complex)”: the values for the Kd in assay [16] and in assay [19] were 1.68 µM and 2.54 µM, respectively.

In the case of “peptide-deficient (empty) HLA-A*29:02/hβ2m (from UniProt P61769 21-119) (complex)”, the Kd in [16] came out at 0.29 µM; in assay [19], 0.26 µM.

In the case of “peptide-deficient (empty) HLA-A*30:01/hβ2m (from UniProt P61769 21-119) (complex)”, the Kd was 1.28 µM in assay [16] and 0.99 µM in assay [19].

As for “peptide-deficient (empty) HLA-A*68:02/hβ2m (from UniProt P61769 21-119) (complex)”, the values for the Kd in [16] and in assay [19] were 0.43 µM and 0.12 µM, respectively.

For “peptide-deficient (empty) HLA-B*08:01/hβ2m (from UniProt P61769 21-119) (complex)”, the Kd in [16] worked out at 1.89 µM.

With “peptide-deficient (empty) HLA-B*37:01/hβ2m (from UniProt P61769 21-119) (complex)”, the figures for the Kd in [16] and in assay [19] were 2.19 µM and 7.02 µM, respectively.

Take “peptide-deficient (empty) HLA-E*01:03/hβ2m (from UniProt P61769 21-119) (complex)”: the Kd in assay [19] was 1.51 µM.

In assay [16], “peptide-deficient (empty) HLA-G*01:01/hβ2m (from UniProt P61769 21-119) (complex)” registered a Kd of 11.2 µM.

“peptide-loaded HLA-A*02:01/hβ2m (photolabile peptide KILGFVFJV) (from UniProt P61769 21-119) (peptide-MHC)” displayed a Kd in [20] of 9.44 µM.

For the substance “peptide-loaded HLA-A*02:01/hβ2m/KILGFVFJV (from UniProt P61769 21-119) (peptide-MHC)”, the Kd in [21] came to 1.26 µM; in assay [22] it was 1.38 µM; in [23], 1.31 µM.

Turning to “peptide-loaded HLA-A*24:02/hβ2m (photolabile peptide VYGJVRACL) (from UniProt P61769 21-119) (peptide-MHC)”, the values for the Kd in assay [24] and in assay [20] were 17.4 µM and 10.9 µM, respectively.

As for “peptide-loaded HLA-A*29:02/hβ2m (photolabile peptide) (from UniProt P61769 21-119) (peptide-MHC)”, the results for the Kd in assay [24] and in assay [20] were 0.17 µM and 0.19 µM, respectively.

Turning to “peptide-loaded HLA-A*30:01/hβ2m (photolabile peptide) (from UniProt P61769 21-119) (peptide-MHC)”, in assay [20], the Kd amounted to 0.95 µM.

Take “peptide-loaded HLA-A*68:02/hβ2m (photolabile peptide) (from UniProt P61769 21-119) (peptide-MHC)”: the Kd in assay [24] was found to be 0.56 µM; in assay [20] it was 0.22 µM.

As for “peptide-loaded HLA-B*08:01/hβ2m (photolabile peptide FLRGRAJGL) (from UniProt P61769 21-119) (peptide-MHC)”, the Kd was 4.6 µM in assay [25] and 3.19 µM in assay [24].
